Columns and labels:
[1] = target: arsenite oxidase (Aio) from Rhizobium sp. str. NT-26 with the AioB-F108A substitution (Rhizobium sp. str. NT-26); assay: ITC; 750 μM reduced cytochrome c in the syringe injected (1.5 or 2 μL) into 75 μM reduced Aio in the cell; 50 mM Tris-HCl (pH 8), no NaCl, 25 °C; 1:1 binding fit; three enzyme preparations
[2] = target: arsenite oxidase (Aio) from Rhizobium sp. str. NT-26, wild type (Rhizobium sp. str. NT-26); assay: as above
[3] = target: arsenite oxidase (Aio) from Rhizobium sp. str. NT-26, wild type (Rhizobium sp. str. NT-26)

How did the Kd [1] turn out when “horse heart cytochrome c (from UniProt P00004 1-105) (natural protein)” was run?
Its Kd is 7.8 µM.

And the dH (kcal mol^(− 1)) [1]?
Its dH (kcal mol^(− 1)) is 3.

And the stoichiometry N [1]?
The stoichiometry N was 0.82.

And the Kd [2]?
Its Kd is 2300 nM.

And the dH (kcal mol^(− 1)) [2]?
Its dH (kcal mol^(− 1)) is 6.

What about the stoichiometry N [2] of the same substance?
The stoichiometry N was 0.85.

What about the KM for cytochrome c, steady-state kinetics of Aio with 2.5 mM arsenite and 0.5-10 μM cytochrome c [3] of the same substance?
The KM for cytochrome c, steady-state kinetics of Aio with 2.5 mM arsenite and 0.5-10 μM cytochrome c was 1 µM.

— paper PMC5574378
